Target: VHL (Homo sapiens, UniProt P40337)
Assay: SPR

VHL, sequence (P40337 whole entry): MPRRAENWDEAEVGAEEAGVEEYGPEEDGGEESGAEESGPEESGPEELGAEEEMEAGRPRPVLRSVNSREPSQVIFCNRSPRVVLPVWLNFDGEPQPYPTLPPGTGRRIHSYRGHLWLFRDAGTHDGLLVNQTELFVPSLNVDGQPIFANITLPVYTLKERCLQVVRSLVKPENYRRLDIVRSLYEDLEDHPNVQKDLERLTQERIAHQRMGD

- Kd: > 10 µM
B1: IRE1 (protein)
chain: IFGSTSTVTLPETLLFVSTLDGSLHAVSKRTGSIKWTLKEDPVLQVPTHVEEPAFLPDPNDGSLYTLGSKNNEGLTKLPFTIPELVQASPCRSSDGILYMGKKQDIWYVIDLLTGEKQQTLSSAFADSLCPSTSLLYLGRTEYTITMYDTKTRELRWNATYFDYAASLPEDDVDYKMSHFVSNGDGLVVTVDSESGDVLWIQNYASPVVAFYVWQREGLRKVMHINVAVETLRYLTFMSGEVGRITKWKYPFPKETEAKSKLTPTLYVGKYSTSLYASPSMVHEGVAVVPRGSTLPLLEGPQTDGVTIGDKGECVITPSTDVKFDPGLKSKNKLNYLRNYWLLIGHHETPLSASTKMLERFPNNLPKHRENVIPADSEKKSFEEVINLVDQTSENAPTTVSRDVEEKPAHAPARPEAPVDSMLKDMATIILSTFLLIGWVAFIITYPLSMHQQQQLQHQQFQKELEKIQLLQQQQQQLPFHPPGDTAQDGELLDTSGPYSESSGTSSPSTSPRASNHSLCSGSSASKAGSSPSLEQDDGDEETSVVIVGKISFCPKDVLGHGAEGTIVYRGMFDNRDVAVKRILPECFSFADREVQLLRESDEHPNVIRYFCTEKDRQFQYIAIELCAATLQEYVEQKDFAHLGLEPITLLQQTTSGLAHLHSLNIVHRDLKPHNILISMPNAHGKIKAMISDFGLCKKLAVGRHSFSRRSGVPGTEGWIAPEMLSEDCKENPTYTVDIFSAGCVFYYVISEGSHPFGKSLQRQANILLGACSLDCLHPEKHEDVIARELIEKMIAMDPQKRPSAKHVLKHPFFWSLEKQLQFFQDVSDRIEKESLDGPIVKQLERGGRAVVKMDWRENITVPLQTDLRKFRTYKGGSVRDLLRAMRNKKHHYRELPAEVRETLGSLPDDFVCYFTSRFPHLLAHTYRAMELCSHERLFQPYYFHEPPEPQPPVTPDAL

— publication PMC12749748 (2025)
